The source of these data is patent US20140274782A1, “AFFINITY REAGENTS AND METHODS FOR DETECTION, PURIFICATION, AND PROTEOMIC ANALYSIS OF METHYLATED PROTEINS” (The Board of Trustees of the Leland Stanford Junior …, priority 2013, published 2014).

One assay concerns 3×MBT domain of L3MBTL1. The experiment in a line: Triple SILAC pull-down, 3xMBT/3xMBTD355N ratio (cytoplasmic, nuclear and chromatin fractions of 293T cells).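 On all read-outs here: proteins quantified with MaxQuant, requiring at least two unique peptides and quantification in both label directions, normalized to the mean of proteins from a digested loading control.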 It is filed as binding, human. Conditions: SILAC ratio, pull-down 3xMBT vs 3xMBTD355N; for 3xMBT/D355N UNC Heavy: experiment with UNC0638 in heavy SILAC media; for 3xMBT/D355N UNC Light: experiment with UNC0638 in light SILAC media.

The target in another assay is T1, G9a and GLP (Homo sapiens, UniProt Q96KQ7+Q9H9B1).
T1 sequence (Q96KQ7 2-1210 limits assumed): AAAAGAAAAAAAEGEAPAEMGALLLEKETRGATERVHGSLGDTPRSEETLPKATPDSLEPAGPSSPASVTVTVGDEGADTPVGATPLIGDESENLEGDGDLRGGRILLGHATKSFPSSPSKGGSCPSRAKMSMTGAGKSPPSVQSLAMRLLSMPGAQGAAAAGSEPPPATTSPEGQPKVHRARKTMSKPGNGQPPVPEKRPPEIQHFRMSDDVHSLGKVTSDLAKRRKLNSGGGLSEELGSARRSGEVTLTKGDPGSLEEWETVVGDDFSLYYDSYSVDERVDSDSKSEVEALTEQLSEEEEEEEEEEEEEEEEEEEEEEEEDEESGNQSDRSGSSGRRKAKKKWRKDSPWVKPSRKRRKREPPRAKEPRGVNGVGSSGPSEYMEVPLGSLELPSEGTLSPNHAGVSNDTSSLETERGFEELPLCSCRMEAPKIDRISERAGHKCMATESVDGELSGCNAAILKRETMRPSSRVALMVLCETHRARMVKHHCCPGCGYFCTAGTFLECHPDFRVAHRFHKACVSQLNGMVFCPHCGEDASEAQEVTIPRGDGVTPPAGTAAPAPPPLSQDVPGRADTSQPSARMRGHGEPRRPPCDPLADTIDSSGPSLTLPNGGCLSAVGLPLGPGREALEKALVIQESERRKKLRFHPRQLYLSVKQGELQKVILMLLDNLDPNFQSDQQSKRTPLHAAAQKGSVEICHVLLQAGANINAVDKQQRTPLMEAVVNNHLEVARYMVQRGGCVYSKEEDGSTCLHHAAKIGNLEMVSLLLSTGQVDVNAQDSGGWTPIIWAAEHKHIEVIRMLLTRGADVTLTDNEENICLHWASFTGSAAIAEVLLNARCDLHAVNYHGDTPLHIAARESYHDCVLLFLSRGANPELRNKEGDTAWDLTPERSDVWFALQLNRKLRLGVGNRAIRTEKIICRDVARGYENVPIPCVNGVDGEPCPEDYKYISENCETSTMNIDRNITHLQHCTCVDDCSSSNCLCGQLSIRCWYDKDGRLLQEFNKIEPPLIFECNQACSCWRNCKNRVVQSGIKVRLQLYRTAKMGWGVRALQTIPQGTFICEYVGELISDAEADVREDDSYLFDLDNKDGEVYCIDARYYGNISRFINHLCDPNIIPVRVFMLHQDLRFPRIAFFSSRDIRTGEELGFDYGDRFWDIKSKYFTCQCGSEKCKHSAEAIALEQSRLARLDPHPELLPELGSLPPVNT
T1 sequence (Q9H9B1 2-1298 limits assumed): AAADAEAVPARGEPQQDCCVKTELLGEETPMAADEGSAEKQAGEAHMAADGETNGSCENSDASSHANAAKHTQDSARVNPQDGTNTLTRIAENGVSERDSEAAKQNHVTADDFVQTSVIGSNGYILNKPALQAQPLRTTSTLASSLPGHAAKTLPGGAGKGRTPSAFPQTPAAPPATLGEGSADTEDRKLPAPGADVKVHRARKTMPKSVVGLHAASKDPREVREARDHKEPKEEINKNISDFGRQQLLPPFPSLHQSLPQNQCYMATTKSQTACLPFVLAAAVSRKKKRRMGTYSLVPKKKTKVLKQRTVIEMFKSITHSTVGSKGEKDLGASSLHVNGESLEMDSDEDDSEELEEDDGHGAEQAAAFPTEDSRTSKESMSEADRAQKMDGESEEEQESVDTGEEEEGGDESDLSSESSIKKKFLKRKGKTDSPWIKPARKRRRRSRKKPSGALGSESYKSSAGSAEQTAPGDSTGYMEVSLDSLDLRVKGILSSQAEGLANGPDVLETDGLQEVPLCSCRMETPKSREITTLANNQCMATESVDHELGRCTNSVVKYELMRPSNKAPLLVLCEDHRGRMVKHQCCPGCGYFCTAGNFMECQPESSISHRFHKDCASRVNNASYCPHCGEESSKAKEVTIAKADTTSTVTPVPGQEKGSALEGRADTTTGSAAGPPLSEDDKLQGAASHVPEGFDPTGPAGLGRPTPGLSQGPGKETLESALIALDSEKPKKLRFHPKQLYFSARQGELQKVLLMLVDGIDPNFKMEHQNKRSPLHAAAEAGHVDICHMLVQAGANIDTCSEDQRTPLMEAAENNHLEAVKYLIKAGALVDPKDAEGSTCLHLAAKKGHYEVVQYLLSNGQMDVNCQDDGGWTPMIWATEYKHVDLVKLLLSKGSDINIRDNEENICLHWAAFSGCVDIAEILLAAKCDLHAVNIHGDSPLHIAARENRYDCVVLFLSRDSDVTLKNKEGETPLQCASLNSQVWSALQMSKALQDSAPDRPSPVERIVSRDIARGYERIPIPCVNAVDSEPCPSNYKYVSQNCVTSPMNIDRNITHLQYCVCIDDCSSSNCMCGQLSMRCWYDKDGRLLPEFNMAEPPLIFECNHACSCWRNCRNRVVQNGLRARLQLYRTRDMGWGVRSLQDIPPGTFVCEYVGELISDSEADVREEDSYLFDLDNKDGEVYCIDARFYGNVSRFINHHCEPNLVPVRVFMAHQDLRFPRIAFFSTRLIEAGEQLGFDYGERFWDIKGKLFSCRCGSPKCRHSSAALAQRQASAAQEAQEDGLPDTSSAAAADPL
The experiment in a line: Triple SILAC pull-down after UNC0638 treatment of 293T cells, DMSO/UNC0638 ratio of protein captured by 3×MBT.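 On all read-outs here: mass spectrometry (Q-Exactive) SILAC quantitation, DMSO/UNC0638 ratio computed after subtracting 3×MBTD355N mutant pull-down background, only proteins with at least twofold 3×MBT over mutant signal considered.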 It is filed as cell-based. Also noted: cells were treated for 24 hours with UNC0638 at 2.5 μM or DMSO vehicle control; endogenous in cells; host or cells: HEK 293T. The settings on record: for Relative to UNC0638 UNC Heavy / Relative to UNC0638 UNC Light: SILAC ratio DMSO/UNC0638 of protein pulled down with 3xMBT; for Relative to UNC0638 UNC Heavy: UNC0638 in heavy SILAC media; for Relative to UNC0638 UNC Light: UNC0638 in light SILAC media; for Relative to UNC0638 Average: average of UNC Light and UNC Heavy experiments.

B1: TCOF1 (protein, UniProt Q13428 1-1488, looked up)
Treacle protein: MAEARKRRELLPLIYHHLLRAGYVRAAREVKEQSGQKCFLAQPVTLLDIYTHWQQTSELGRKRKAEEDAALQAKKTRVSDPISTSESSEEEEEAEAETAKATPRLASTNSSVLGADLPSSMKEKAKAETEKAGKTGNSMPHPATGKTVANLLSGKSPRKSAEPSANTTLVSETEEEGSVPAFGAAAKPGMVSAGQADSSSEDTSSSSDETDVEGKPSVKPAQVKASSVSTKESPARKAAPAPGKVGDVTPQVKGGALPPAKRAKKPEEESESSEEGSESEEEAPAGTRSQVKASEKILQVRAASAPAKGTPGKGATPAPPGKAGAVASQTKAGKPEEDSESSSEESSDSEEETPAAKALLQAKASGKTSQVGAASAPAKESPRKGAAPAPPGKTGPAVAKAQAGKREEDSQSSSEESDSEEEAPAQAKPSGKAPQVRAASAPAKESPRKGAAPAPPRKTGPAAAQVQVGKQEEDSRSSSEESDSDREALAAMNAAQVKPLGKSPQVKPASTMGMGPLGKGAGPVPPGKVGPATPSAQVGKWEEDSESSSEESSDSSDGEVPTAVAPAQEKSLGNILQAKPTSSPAKGPPQKAGPVAVQVKAEKPMDNSESSEESSDSADSEEAPAAMTAAQAKPALKIPQTKACPKKTNTTASAKVAPVRVGTQAPRKAGTATSPAGSSPAVAGGTQRPAEDSSSSEESDSEEEKTGLAVTVGQAKSVGKGLQVKAASVPVKGSLGQGTAPVLPGKTGPTVTQVKAEKQEDSESSEEESDSEEAAASPAQVKTSVKKTQAKANPAAARAPSAKGTISAPGKVVTAAAQAKQRSPSKVKPPVRNPQNSTVLARGPASVPSVGKAVATAAQAQTGPEEDSGSSEEESDSEEEAETLAQVKPSGKTHQIRAALAPAKESPRKGAAPTPPGKTGPSAAQAGKQDDSGSSSEESDSDGEAPAAVTSAQVIKPPLIFVDPNRSPAGPAATPAQAQAASTPRKARASESTARSSSSESEDEDVIPATQCLTPGIRTNVVTMPTAHPRIAPKASMAGASSSKESSRISDGKKQEGPATQVSKKNPASLPLTQAALKVLAQKASEAQPPVARTQPSSGVDSAVGTLPATSPQSTSVQAKGTNKLRKPKLPEVQQATKAPESSDDSEDSSDSSSGSEEDGEGPQGAKSAHTLGPTPSRTETLVEETAAESSEDDVVAPSQSLLSGYMTPGLTPANSQASKATPKLDSSPSVSSTLAAKDDPDGKQEAKPQQAAGMLSPKTGGKEAASGTTPQKSRKPKKGAGNPQASTLALQSNITQCLLGQPWPLNEAQVQASVVKVLTELLEQERKKVVDTTKESSRKGWESRKRKLSGDQPAARTPRSKKKKKLGAGEGGEASVSPEKTSTTSKGKAKRDKASGDVKEKKGKGSLGSQGAKDEPEEELQKGMGTVEGGDQSNPKSKKEKKKSDKRKKDKEKKEKKKKAKKASTKDSESPSQKKKKKKKKTAEQTV
With B1, in the assay on 3×MBT domain of L3MBTL1, the “3xMBT/D355N UNC Heavy” value was 0.67 log base 2 and the “3xMBT/D355N UNC Light” value was found to be 3.27 log base 2. In addition, in the assay with G9a and GLP, the “Relative to UNC0638 UNC Heavy” value is reported as −0.10 log base 2, the “Relative to UNC0638 UNC Light” value was determined as 0.38 log base 2 and the “Relative to UNC0638 Average” value is reported as 0.14 log base 2.

B2: MTHFD1 (protein, UniProt P11586 1-935, looked up)
C-1-tetrahydrofolate …: MAPAEILNGKEISAQIRARLKNQVTQLKEQVPGFTPRLAILQVGNRDDSNLYINVKLKAAEEIGIKATHIKLPRTTTESEVMKYITSLNEDSTVHGFLVQLPLDSENSINTEEVINAIAPEKDVDGLTSINAGKLARGDLNDCFIPCTPKGCLELIKETGVPIAGRHAVVVGRSKIVGAPMHDLLLWNNATVTTCHSKTAHLDEEVNKGDILVVATGQPEMVKGEWIKPGAIVIDCGINYVPDDKKPNGRKVVGDVAYDEAKERASFITPVPGGVGPMTVAMLMQSTVESAKRFLEKFKPGKWMIQYNNLNLKTPVPSDIDISRSCKPKPIGKLAREIGLLSEEVELYGETKAKVLLSALERLKHRPDGKYVVVTGITPTPLGEGKSTTTIGLVQALGAHLYQNVFACVRQPSQGPTFGIKGGAAGGGYSQVIPMEEFNLHLTGDIHAITAANNLVAAAIDARIFHELTQTDKALFNRLVPSVNGVRRFSDIQIRRLKRLGIEKTDPTTLTDEEINRFARLDIDPETITWQRVLDTNDRFLRKITIGQAPTEKGHTRTAQFDISVASEIMAVLALTTSLEDMRERLGKMVVASSKKGEPVSAEDLGVSGALTVLMKDAIKPNLMQTLEGTPVFVHAGPFANIAHGNSSIIADRIALKLVGPEGFVVTEAGFGADIGMEKFFNIKCRYSGLCPHVVVLVATVRALKMHGGGPTVTAGLPLPKAYIQENLELVEKGFSNLKKQIENARMFGIPVVVAVNAFKTDTESELDLISRLSREHGAFDAVKCTHWAEGGKGALALAQAVQRAAQAPSSFQLLYDLKLPVEDKIRIIAQKIYGADDIELLPEAQHKAEVYTKQGFGNLPICMAKTHLSLSHNPEQKGVPTGFILPIRDIRASVGAGFLYPLVGTMSTMPGLPTRPCFYDIDLDPETEQVNGLF
On to B2, for which, in the assay with 3×MBT domain of L3MBTL1, the “3xMBT/D355N UNC Heavy” value was determined as 1.99 log base 2 and the “3xMBT/D355N UNC Light” value was 2.35 log base 2. Besides, in the assay with G9a and GLP, the “Relative to UNC0638 UNC Heavy” value came out at 0.05 log base 2, the “Relative to UNC0638 UNC Light” value came to 0.23 log base 2 and the “Relative to UNC0638 Average” value came to 0.14 log base 2.

B3: PABPC4 (protein, UniProt Q13310 1-644, looked up)
Polyadenylate-binding protein …: MNAAASSYPMASLYVGDLHSDVTEAMLYEKFSPAGPVLSIRVCRDMITRRSLGYAYVNFQQPADAERALDTMNFDVIKGKPIRIMWSQRDPSLRKSGVGNVFIKNLDKSIDNKALYDTFSAFGNILSCKVVCDENGSKGYAFVHFETQEAADKAIEKMNGMLLNDRKVFVGRFKSRKEREAELGAKAKEFTNVYIKNFGEEVDDESLKELFSQFGKTLSVKVMRDPNGKSKGFGFVSYEKHEDANKAVEEMNGKEISGKIIFVGRAQKKVERQAELKRKFEQLKQERISRYQGVNLYIKNLDDTIDDEKLRKEFSPFGSITSAKVMLEDGRSKGFGFVCFSSPEEATKAVTEMNGRIVGSKPLYVALAQRKEERKAHLTNQYMQRVAGMRALPANAILNQFQPAAGGYFVPAVPQAQGRPPYYTPNQLAQMRPNPRWQQGGRPQGFQGMPSAIRQSGPRPTLRHLAPTGSECPDRLAMDFGGAGAAQQGLTDSCQSGGVPTAVQNLAPRAAVAAAAPRAVAPYKYASSVRSPHPAIQPLQAPQPAVHVQGQEPLTASMLAAAPPQEQKQMLGERLFPLIQTMHSNLAGKITGMLLEIDNSELLHMLESPESLRSKVDEAVAVLQAHHAKKEAAQKVGAVAAATS
With B3, in the assay with 3×MBT domain of L3MBTL1, the “3xMBT/D355N UNC Heavy” value amounted to 2.94 log base 2 and the “3xMBT/D355N UNC Light” value was 3.59 log base 2. In the assay with G9a and GLP, the “Relative to UNC0638 UNC Heavy” value was 0.16 log base 2, the “Relative to UNC0638 UNC Light” value turned out to be 0.17 log base 2 and the “Relative to UNC0638 Average” value was found to be 0.16 log base 2.
